Laboratory results as given in patent publication US20240100180A1 (SOTIO BIOTECH A S, published 2024).
Substitutions are numbered along the chain they refer to.

B1: cCl1-1 (antibody, V domains shown)
VH: QIQLVQSGPELKKPGESVKISCKASGYTFTDYAMHWVKQAPGKGLKWMGWINTYTGKPTYADDFKGRFVFSLEASASTANLQISNLKNEDTATYFCARAVFYGYTMDAWGQGTSVTVSS
VL: DIQMTQSPASLSASLGETISIACRASEDIYSNLAWYQQKSGKSPQLLIFSVKRLQDGVPSRFSGSGSGTQYSLKISGMQPEDEGDYFCLQGSNFPLTFGSGTKLEIK
notes: Chimeric antibody from rat hybridoma, detected with anti-human IgG
B2: hCL1a-LC-G2-PNU (antibody, human IgG1, kappa)
heavy: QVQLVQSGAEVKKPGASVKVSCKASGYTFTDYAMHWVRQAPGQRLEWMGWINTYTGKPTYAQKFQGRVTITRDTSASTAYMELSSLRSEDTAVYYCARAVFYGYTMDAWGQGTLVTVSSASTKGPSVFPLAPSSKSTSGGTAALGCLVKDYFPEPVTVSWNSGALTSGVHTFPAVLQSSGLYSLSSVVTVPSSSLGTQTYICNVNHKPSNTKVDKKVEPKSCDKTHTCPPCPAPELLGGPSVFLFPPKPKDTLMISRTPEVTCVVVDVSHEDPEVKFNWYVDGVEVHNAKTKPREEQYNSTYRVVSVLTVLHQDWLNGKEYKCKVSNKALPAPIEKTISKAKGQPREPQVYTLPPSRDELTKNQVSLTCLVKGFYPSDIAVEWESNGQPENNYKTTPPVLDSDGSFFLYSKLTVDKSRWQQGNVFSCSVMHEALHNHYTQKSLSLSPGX
light: DIQMTQSPSSLSASVGDRVTITCRASEDIYSNLAWYQQKPGKAPKLLIFSVKRLQDGVPSRFSGSGSGTDFTLTISSLQPEDFATYYCLQGSNFPLTFGQGTKVEIKRTVAAPSVFIFPPSDEQLKSGTASVVCLLNNFYPREAKVQWKVDNALQSGNSQESVTEQDSKDSTYSLSSTLTLSKADYEKHKVYACEVTHQGLSSPVTKSFNRGECGGGGSLPQTGG
modifications: PNU-159682 linked through ethylenediamine to the C-terminal Gly of the GGGGSLPQTGG tag
B3: hCL1c-LC-G2-PNU (antibody, human IgG1, kappa)
heavy: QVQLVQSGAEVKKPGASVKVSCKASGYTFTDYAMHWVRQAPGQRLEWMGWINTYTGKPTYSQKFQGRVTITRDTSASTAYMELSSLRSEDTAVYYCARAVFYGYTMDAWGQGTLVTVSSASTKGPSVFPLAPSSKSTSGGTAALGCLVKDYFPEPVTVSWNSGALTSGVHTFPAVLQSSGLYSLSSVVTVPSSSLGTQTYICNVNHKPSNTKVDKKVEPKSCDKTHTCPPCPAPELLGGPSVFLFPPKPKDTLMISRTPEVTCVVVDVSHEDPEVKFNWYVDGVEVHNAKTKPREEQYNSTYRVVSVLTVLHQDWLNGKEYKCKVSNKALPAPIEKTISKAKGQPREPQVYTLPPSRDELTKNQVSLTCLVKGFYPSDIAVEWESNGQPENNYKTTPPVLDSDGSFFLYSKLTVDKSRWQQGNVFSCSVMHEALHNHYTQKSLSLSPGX
light: B2 light with A25T, S50A, V51I, N93K
modifications: PNU-159682 linked through ethylenediamine to the C-terminal Gly of the GGGGSLPQTGG tag
B4: hCL1j-LC-G2-PNU (antibody, human IgG1, kappa)
heavy: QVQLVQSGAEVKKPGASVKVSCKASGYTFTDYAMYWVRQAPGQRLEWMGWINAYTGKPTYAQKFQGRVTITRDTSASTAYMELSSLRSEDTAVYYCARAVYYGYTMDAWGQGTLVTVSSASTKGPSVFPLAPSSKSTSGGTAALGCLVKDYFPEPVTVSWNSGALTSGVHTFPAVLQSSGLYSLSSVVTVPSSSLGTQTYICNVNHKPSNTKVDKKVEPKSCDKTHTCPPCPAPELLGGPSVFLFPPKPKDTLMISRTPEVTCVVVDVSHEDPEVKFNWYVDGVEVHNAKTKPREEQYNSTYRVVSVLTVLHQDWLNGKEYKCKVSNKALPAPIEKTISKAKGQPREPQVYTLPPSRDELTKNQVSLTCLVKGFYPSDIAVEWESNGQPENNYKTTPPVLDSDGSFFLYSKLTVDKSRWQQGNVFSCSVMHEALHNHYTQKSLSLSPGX
light: B2 light with A25T, S50A, V51I, N93K
modifications: PNU-159682 linked through ethylenediamine to the C-terminal Gly of the GGGGSLPQTGG tag
B5: hCL1f-LC-G2-PNU (antibody, human IgG1, kappa)
heavy: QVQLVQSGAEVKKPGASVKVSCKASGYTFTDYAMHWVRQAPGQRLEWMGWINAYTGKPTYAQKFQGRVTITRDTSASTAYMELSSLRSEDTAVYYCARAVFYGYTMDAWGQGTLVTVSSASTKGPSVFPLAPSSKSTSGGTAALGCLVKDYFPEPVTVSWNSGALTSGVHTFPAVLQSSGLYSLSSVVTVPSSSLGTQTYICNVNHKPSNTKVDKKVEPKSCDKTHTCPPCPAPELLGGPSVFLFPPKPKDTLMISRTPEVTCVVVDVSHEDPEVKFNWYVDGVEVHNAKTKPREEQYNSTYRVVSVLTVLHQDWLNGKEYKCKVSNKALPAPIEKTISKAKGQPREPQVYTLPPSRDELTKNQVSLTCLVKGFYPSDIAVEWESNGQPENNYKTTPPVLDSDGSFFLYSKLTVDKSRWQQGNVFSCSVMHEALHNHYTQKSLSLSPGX
light: B2 light with F49Y
modifications: PNU-159682 linked through ethylenediamine to the C-terminal Gly of the GGGGSLPQTGG tag
B6: hCL1d-LC-G2-PNU (antibody, human IgG1, kappa)
heavy: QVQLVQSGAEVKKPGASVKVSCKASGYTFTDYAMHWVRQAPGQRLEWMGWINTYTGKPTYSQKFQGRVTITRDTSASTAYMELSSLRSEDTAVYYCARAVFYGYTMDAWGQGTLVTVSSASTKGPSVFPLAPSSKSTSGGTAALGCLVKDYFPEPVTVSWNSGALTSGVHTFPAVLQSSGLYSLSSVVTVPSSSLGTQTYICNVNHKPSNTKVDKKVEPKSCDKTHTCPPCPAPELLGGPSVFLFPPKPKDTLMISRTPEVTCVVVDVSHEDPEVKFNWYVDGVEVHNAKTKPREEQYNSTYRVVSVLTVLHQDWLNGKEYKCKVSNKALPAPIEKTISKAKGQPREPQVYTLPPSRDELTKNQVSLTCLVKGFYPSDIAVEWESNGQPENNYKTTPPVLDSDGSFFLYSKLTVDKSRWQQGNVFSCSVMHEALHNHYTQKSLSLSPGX
light: B2 light with A25T, L33F, F49Y, K52N, N93K
modifications: PNU-159682 linked through ethylenediamine to the C-terminal Gly of the GGGGSLPQTGG tag
B7: hCL1i-LC-G2-PNU (antibody, human IgG1, kappa)
heavy: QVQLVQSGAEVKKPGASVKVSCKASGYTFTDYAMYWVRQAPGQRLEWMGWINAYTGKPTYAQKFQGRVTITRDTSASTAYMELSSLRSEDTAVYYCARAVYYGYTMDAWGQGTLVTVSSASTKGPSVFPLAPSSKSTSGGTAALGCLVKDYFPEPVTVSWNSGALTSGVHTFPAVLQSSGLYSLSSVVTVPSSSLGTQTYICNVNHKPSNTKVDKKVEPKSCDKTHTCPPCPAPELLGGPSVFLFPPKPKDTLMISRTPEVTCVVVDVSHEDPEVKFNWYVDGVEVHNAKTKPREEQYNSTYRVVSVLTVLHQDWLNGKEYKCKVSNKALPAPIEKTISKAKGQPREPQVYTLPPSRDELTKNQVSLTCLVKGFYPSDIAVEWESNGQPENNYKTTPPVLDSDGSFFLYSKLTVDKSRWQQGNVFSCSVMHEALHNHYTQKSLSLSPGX
light: B2 light
modifications: PNU-159682 linked through ethylenediamine to the C-terminal Gly of the GGGGSLPQTGG tag
B8: hCL1e-LC-G2-PNU (antibody, human IgG1, kappa)
heavy: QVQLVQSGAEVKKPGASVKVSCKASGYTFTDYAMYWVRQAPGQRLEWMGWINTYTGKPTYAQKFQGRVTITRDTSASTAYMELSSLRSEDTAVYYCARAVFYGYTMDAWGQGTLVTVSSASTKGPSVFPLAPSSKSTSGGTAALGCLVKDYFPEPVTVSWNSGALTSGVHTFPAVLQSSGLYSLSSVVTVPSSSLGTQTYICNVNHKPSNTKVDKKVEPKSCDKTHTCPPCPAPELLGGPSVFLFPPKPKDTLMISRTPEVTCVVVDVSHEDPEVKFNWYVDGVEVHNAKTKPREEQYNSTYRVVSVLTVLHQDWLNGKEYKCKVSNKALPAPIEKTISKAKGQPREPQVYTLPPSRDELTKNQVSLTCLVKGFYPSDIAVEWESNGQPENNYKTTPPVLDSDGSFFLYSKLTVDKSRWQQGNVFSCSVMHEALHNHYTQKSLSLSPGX
light: B2 light
modifications: PNU-159682 linked through ethylenediamine to the C-terminal Gly of the GGGGSLPQTGG tag
B9: hCL1g-LC-G2-PNU (antibody, human IgG1, kappa)
heavy: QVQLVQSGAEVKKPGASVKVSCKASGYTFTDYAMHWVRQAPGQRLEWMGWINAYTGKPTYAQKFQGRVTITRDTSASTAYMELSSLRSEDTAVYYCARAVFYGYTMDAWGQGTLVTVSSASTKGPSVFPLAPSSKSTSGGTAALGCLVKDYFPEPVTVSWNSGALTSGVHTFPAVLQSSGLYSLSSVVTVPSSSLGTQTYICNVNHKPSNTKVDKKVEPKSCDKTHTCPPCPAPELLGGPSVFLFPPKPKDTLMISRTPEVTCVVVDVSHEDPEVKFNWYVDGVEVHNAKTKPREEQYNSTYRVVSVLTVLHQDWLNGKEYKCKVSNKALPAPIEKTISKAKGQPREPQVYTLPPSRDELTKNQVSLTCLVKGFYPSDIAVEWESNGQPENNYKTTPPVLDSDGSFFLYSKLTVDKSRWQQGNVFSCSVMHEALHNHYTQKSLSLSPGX
light: B2 light with A25T, L33F, F49Y, K52N, N93K
modifications: PNU-159682 linked through ethylenediamine to the C-terminal Gly of the GGGGSLPQTGG tag
B10: hCL1h-LC-G2-PNU (antibody, human IgG1, kappa)
heavy: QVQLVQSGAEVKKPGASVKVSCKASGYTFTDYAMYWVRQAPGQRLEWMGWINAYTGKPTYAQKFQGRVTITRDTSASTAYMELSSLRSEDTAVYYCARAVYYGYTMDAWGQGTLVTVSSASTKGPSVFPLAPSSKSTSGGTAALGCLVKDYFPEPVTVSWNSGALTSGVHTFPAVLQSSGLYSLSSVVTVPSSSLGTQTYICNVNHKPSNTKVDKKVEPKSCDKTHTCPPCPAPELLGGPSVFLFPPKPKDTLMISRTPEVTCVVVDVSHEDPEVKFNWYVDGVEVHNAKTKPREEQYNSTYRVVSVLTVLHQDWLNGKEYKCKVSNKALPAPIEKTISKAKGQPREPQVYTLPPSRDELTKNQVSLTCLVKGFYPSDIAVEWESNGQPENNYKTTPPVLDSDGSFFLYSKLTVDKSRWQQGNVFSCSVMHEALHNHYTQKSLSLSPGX
light: B2 light with F49Y
modifications: PNU-159682 linked through ethylenediamine to the C-terminal Gly of the GGGGSLPQTGG tag
B11: hCL1b-LC-G2-PNU (antibody, human IgG1, kappa)
heavy: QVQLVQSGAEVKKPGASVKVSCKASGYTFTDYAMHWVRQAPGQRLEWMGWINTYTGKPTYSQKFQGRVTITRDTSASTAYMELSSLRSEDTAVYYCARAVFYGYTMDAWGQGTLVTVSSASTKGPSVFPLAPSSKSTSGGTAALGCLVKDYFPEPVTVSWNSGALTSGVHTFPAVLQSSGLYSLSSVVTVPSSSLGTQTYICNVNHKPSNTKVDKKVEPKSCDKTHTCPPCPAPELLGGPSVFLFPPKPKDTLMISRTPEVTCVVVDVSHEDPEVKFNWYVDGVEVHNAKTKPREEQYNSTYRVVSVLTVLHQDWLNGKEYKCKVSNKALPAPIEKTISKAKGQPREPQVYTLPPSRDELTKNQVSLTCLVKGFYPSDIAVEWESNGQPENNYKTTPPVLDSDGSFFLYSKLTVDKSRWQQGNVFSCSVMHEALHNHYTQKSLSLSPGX
light: B2 light
modifications: PNU-159682 linked through ethylenediamine to the C-terminal Gly of the GGGGSLPQTGG tag
B12: cCl1-2 (antibody, V domains shown)
VH: B1 VH with A24T, A40G, L45M, T53A, F70L, F101Y, T116I
VL: B1 VL with A22E, A25T, L33F, Y36F, F49Y, K52N, N93K
notes: as for B1
B13: cCl1-3 (antibody, V domains shown)
VH: B1 VH with H35Y, A40V, K46R
VL: B1 VL with A25T, S50A, V51I, N93K
notes: as for B1

Biological target: T1, human CLDN18.2 (Claudin 18.2) expressed on cells (human)
T1 construct: also called huCLDN18.2; hCLDN18.2
Assay: % positive tumor cells divided by % positive healthy stomach cells, flow cytometry, average
Description: (§1) Two Balb/c mice were implanted subcutaneously with 1×10⁶ A549 cells expressing CLDN18.2 in 100 μl of 50% Matrigel and tumors growth was monitored over a few weeks until the tumor reached the desired size between 150-450 mm³. Healthy stomach tissue and tumor tissue was collected for FC analysis. The collected tissues were cut into small pieces and digested with the Miltenyi tumor dissociation kit (MACS Miltenyi Biotec, Germany). Tissue pieces were incubated with dissociation buffer (prepared according to the manufacturer instruction) in 6 well plates for 30 min in 37° C. under permanent gentle rocking motion. Samples were resuspended and strained through a 70 μm cell strainer (Corning, USA) followed by a wash with 20 ml FC buffer (PBS+2% FBS). Cell suspensions were centrifuged (5 min at 400 g for 4° C.) and the supernatants were discarded. If needed, cell suspensions were passed through a strainer and centrifuged repeatedly and pellets resuspended in 5 ml of red blood cell lysis buffer (Biolegend, USA), incubated on ice for 4 min. After incubation, 25 ml of PBS was added, and the suspensions were centrifuged again (5 min at 400 g for 4° C.). Pellets were resuspended in FC buffer (0.5-3 ml based on pellets). Equal number of cells were transferred into 96 well plates and further processed for FC analysis. […]

Binder	Ratio tumor/stomach
B1	74.3

Biological target: T1, human CLDN18.2 (Claudin 18.2) expressed …
Assay: cell-based or functional assay

Binder	EC50 of in-vitro cytotoxicity, A549-CLDN18.2 cells (head of c2)
B2	4.8 ng/mL
B3	30 ng/mL
B4	5.3 ng/mL
B5	14 ng/mL
B6	11.6 ng/mL
B7	3.8 ng/mL
B8	4.3 ng/mL
B9	70.7 ng/mL
B10	3.3 ng/mL
B11	6.4 ng/mL

Biological target: T2, human CLDN18.1 (Claudin 18.1) expressed on cells (human, UniProt P56856 1-261)
T2 construct: whole, on cells; Isoform 1 (lung isoform) of CLDN18; also called huCLDN18.1; hCLDN18.1
T2 sequence (P56856 whole entry, canonical isoform): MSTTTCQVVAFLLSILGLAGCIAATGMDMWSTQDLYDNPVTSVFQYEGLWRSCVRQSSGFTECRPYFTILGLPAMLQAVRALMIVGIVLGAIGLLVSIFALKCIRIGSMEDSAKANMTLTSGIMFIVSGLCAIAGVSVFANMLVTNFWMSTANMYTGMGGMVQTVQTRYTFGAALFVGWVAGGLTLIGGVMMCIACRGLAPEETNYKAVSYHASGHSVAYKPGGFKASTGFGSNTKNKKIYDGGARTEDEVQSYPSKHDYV
Assay: flow cytometry, L11 cells overexpressing huCLDN18.1 (FIG. 4)
Description: The cells were stained on ice for 30 min using the antibodies at 2 μg/ml and, upon washing in PBS/2% FCS, stained with anti-human IgG (Fc gamma-specific) PE goat antibody (eBioscience) as secondary antibody for 30 min on ice.

Binder	binding result
B1	no binding (tested: 2 µg/ml)
B12	no binding (tested: 2 µg/ml)
B13	no binding (tested: 2 µg/ml)

Biological target: T1, human CLDN18.2 (Claudin 18.2) expressed …
Assay: % positive tumor cells divided by % positive healthy stomach cells, flow cytometry, mouse 1
Description: as §1

Binder	Ratio tumor/stomach
B1	92.5

Biological target: T1, human CLDN18.2 (Claudin 18.2) expressed …
Assay: % positive tumor cells divided by % positive healthy stomach cells, flow cytometry, mouse 2
Description: as §1

Binder	Ratio tumor/stomach
B1	50
